# Molecular target: T1, human trkC (human, UniProt Q16288 32-429, limits assumed)
# T1 construct: also called htrkC; trkC receptor
# Assay: BIAcore analysis (SPR); format not stated
row,Kd [nM],Binder
1,~40,"mouse anti-trkC agonist monoclonal antibody 2256 (antibody, V domains shown) VH: QVQLQQPGAELVKPGASVKLSCKASGYTFTSYWMHWVKQRPGQGLEWIGEIYPSNGRTNYNEKFKSKATLTVDKSSSTAYMQLSSLTSEDSAVYYCARKYYYGNSYRSWYFDVWGAGTTLTVS VL: not shown"
2,~0.28,"humanized anti-trkC agonist antibody A5 (antibody, V domains shown, also called humanized monoclonal antibody A5) VH: QVQLVQSGAEVKKPGASVKVSCKASGYTFTSYRIHWVRQAPGQGLEWMGEIYPSNARTNYNEKFKSRVTMTRDTSTSTVYMELSSLRSEDTAVYYCARKYYYGNTRRSWYFDVWGQGTTVTVS VL: DIQMTQSPSSLSASVGDRVTITCRASESIDNYGISFLAWYQQKPGKAPKLLIYAASNRGSGVPSRFSGSGSGTDFTFTISSLQPEDIATYYCQQSKTVPRTFGQGTKLEIKR"

# Reference: patent US20050089521A1 (published 2005)
